According to PMC4505445 (The Journal of Biological Chemistry, 2015):

Target: biotinylated Aβ oligomers (from bAβ1–42) (UniProt P05067 672-713)
Assay: ELISA
Conditions: both partners purified

B1: wild-type human prion protein (amino acids 23–231), unlabeled (domain or fragment)
chain: not shown
- binding result: binds
